Data from article doi:10.1101/2022.08.30.505852.

Molecular target: βCAT_(666-729), β-catenin residues 666-729 (human) (UniProt P35222)
Assay: ITC

Sequence of βCAT_(666-729), β-catenin residues 666-729 (human) (P35222 666-729): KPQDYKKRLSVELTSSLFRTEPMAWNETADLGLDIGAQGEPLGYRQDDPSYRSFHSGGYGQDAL

## TAZ1 domain of CBP (residues 346-440) (from UniProt Q92793 346-440) (domain or fragment)
  Kd: 67 µM
